Results published in PMC6589562.

Target: spoke HSP40 (His-tagged recombinant HSP40) (Chlamydomonas reinhardtii)
Assay: AUC

Substance: spoke HSP40 (His-tagged recombinant HSP40) (natural protein)
- stoichiometry N: 2
